Measured values from paper PMC6881174.
Several values for one entry are separate records, joined by “and”; a condition that tells them apart may be missing. Identical values can stand only once.

Molecular target: TRIM5α from African green monkey, L81F (African green monkey)
Assay: cryo-EM structure

TRIM5α from African green monkey, L81F (natural protein)
stoichiometry N: 3 and 2
